What was measured:
[1] = target: human lymphotoxin (TNFβ) (human) (UniProt P01374); experiment: cell-based or functional assay
[2] = target: human tumor necrosis factor-alpha (TNFα) (human) (UniProt P01375); experiment: cell-based or functional assay
Sequence of human tumor necrosis factor-alpha (TNFα) (human) (P01375 77-233): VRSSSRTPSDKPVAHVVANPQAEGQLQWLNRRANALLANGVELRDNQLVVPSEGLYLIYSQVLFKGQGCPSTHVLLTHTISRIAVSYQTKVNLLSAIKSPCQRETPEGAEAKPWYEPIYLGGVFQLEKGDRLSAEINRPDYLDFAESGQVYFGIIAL

Sequence of human lymphotoxin (TNFβ) (human) (P01374 35-205 limits assumed): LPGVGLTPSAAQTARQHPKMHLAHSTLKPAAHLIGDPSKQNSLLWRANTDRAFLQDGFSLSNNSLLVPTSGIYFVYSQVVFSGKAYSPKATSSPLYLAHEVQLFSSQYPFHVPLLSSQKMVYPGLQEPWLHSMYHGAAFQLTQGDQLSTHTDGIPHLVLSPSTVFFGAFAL

p55-sf2 (p55 TNF receptor / IgG1 heavy chain single fusion with truncated light chain JCK) (from UniProt P01857 1-330) (Fc fusion)
amount needed for the same degree of inhibition of TNFβ cytotoxicity, against p75P-sf2 [1]: 3 fold

p75-sf2 (complete extracellular domain of p75 fused to the heavy chain) (from UniProt P20333 23-257; P01857 1-330) (Fc fusion)
amount needed for the same degree of inhibition of TNFβ cytotoxicity, against p75P-sf2 [1]: 3 fold

p75P-sf2 (p75 heavy chain fusion lacking the C-terminal 53 amino acids of the p75 extracellular domain) (from UniProt P20333 23-204; P01857 1-330) (Fc fusion)
concentration to half-inhibit human TNFβ at 2 pM, WEHI 164 cytotoxicity [1]: 31 pM

B1: chimeric mouse/human IgG1 anti-platelet mAb (7E3) (antibody, INN chains, looked up, V domains shown)
VH: EVQLQQSGTVLARPGASVKMSCEASGYTFTNYWMHWVKQRPGQGLEWIGAIYPGNSDTSYIQKFKGKAKLTAVTSTTSVYMELSSLTNEDSAVYYCTLYDGYYVFAYWGQGTLVTVSA
VL: EIVLTQSPVTLSVTPGDSVSLSCRASRDISNNLHWFQQTSHESPRLLIKYASQSMSGIPSRFSGSGSGTDFTLSINSVETEDFGMYFCQQTNSWPYTFGGGTKLEIK
modifications: full IgG1
IL-6 in supernatant of FS-4 fibroblasts, rhTNF 0.3 ng/ml, 4 µg/ml antibody [2]: 1.6 ng/mL
IL-6 in supernatant of FS-4 fibroblasts, rhTNF 1.5 ng/ml, 4 µg/ml antibody [2]: 1.96 ng/mL
IL-6 in supernatant of FS-4 fibroblasts, rhTNF 7.5 ng/ml, 4 µg/ml antibody [2]: 2.16 ng/mL

Reference: patent publication US20050249735A1
